Experimental data taken from patent publication US10799605B2 (3B PHARMACEUTICALS GMBH, priority 2014, dated 2020).

Biological target: T1, CCR1 (h) (Homo sapiens (Human), UniProt P32246)
T1 sequence (P32246 whole entry, looked up): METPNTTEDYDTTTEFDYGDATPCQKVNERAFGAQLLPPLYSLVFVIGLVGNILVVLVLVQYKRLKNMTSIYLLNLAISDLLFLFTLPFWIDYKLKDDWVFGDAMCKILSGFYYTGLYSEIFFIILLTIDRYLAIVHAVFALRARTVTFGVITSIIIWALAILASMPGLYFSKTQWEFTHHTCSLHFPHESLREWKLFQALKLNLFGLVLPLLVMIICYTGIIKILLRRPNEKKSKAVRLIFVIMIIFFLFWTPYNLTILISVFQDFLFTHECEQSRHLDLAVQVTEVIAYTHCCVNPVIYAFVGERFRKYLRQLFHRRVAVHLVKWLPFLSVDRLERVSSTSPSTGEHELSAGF
Experiment: ExpresSProfile: C-C chemokine receptor type 1, agonist radioligand
Type: binding
Conditions: Reference Compound

Substance: MIP-1alpha
- nH Ref: 1.1
